Measured values taken from the Immune Epitope Database (IEDB).
Values belong to the sequence of their own block, whether it stands above or below them.

What was measured:
HLA-B*46:01 [1] = experiment: IEDB peptide-MHC binding, purified MHC/competitive/fluorescence; filed as Kd, often an IC50 or EC50 that approximates it; ≥ and ≤ were set here for values at or beyond the usual limits of such assays
HLA-A*23:01 = experiment: IEDB peptide-MHC binding, purified MHC/direct/fluorescence; filed as Kd, often an IC50 or EC50 that approximates it; ≥ and ≤ were set here for values at or beyond the usual limits of such assays
HLA-A*24:03 [2] = experiment: as above
HLA-A*31:01 [3] = experiment: IEDB peptide-MHC binding, purified MHC/competitive/fluorescence; filed as Kd, often an IC50 or EC50 that approximates it; ≥ and ≤ were set here for values at or beyond the usual limits of such assays; details: source organism: Bacillus anthracis str. A0488
HLA-A*24:03 [4] = experiment: as above
HLA-A*26:01 = experiment: as above
HLA-B*51:01 = experiment: as above
HLA-A*69:01 [5] = experiment: as above
HLA-B*27:03 = experiment: as above
HLA-A*02:01 [6] = experiment: IEDB peptide-MHC binding, purified MHC/direct/fluorescence; filed as Kd, often an IC50 or EC50 that approximates it; ≥ and ≤ were set here for values at or beyond the usual limits of such assays
HLA-B*48:01 = experiment: as above
HLA-A*68:02 [7] = experiment: as above; details: source organism: Orthohantavirus tulaense
HLA-A*01:01 = experiment: as above
HLA-A*29:02 = experiment: as above
HLA-B*27:05 = experiment: as above
HLA-B*46:01 [8] = experiment: as above
HLA-A*31:01 [9] = experiment: as above
HLA-B*18:01 [10] = experiment: as above
HLA-B*39:01 [11] = experiment: as above
HLA-B*57:01 [12] = experiment: as above
HLA-A*03:01 [13] = experiment: as above
HLA-A*02:11 [14] = experiment: as above; details: source organism: Orthohantavirus tulaense
HLA-A*02:12 [15] = experiment: as above
HLA-B*44:02 = experiment: as above
HLA-B*15:01 [16] = experiment: as above
HLA-B*07:02 = experiment: as above; details: source organism: Mammarenavirus lassaense
HLA-B*40:01 = experiment: as above; details: source organism: Mammarenavirus lassaense
HLA-A*11:01 = experiment: as above; details: source organism: Mammarenavirus lassaense
HLA-A*69:01 [17] = experiment: as above; details: source organism: Mammarenavirus lassaense
HLA-B*58:01 = experiment: as above; details: source organism: Mammarenavirus lassaense
HLA-A*02:01 [18] = experiment: IEDB peptide-MHC binding, purified MHC/competitive/fluorescence; filed as Kd, often an IC50 or EC50 that approximates it; ≥ and ≤ were set here for values at or beyond the usual limits of such assays
HLA-A*68:02 [19] = experiment: as above
HLA-A*02:19 [20] = experiment: as above
HLA-B*15:17 = experiment: as above
HLA-B*18:01 [21] = experiment: as above
HLA-B*39:01 [22] = experiment: as above
HLA-B*57:01 [23] = experiment: as above
HLA-A*03:01 [24] = experiment: as above
HLA-A*02:12 [25] = experiment: as above
HLA-B*15:01 [26] = experiment: as above
HLA-A*02:03 [27] = experiment: as above; details: source organism: Yersinia mollaretii ATCC 43969
HLA-A*02:11 [28] = experiment: as above; details: source organism: Escherichia coli
HLA-A*02:19 [29] = experiment: IEDB peptide-MHC binding, purified MHC/direct/fluorescence; filed as Kd, often an IC50 or EC50 that approximates it; ≥ and ≤ were set here for values at or beyond the usual limits of such assays; details: source organism: Orthohantavirus andesense
HLA-A*02:03 [30] = experiment: as above; details: source organism: Orthohantavirus andesense
[31] = source organism: Vibrio vulnificus CMCP6
[32] = source organism: Orthohantavirus puumalaense
[33] = source organism: Isla Vista hantavirus
[34] = source organism: Orthohantavirus tulaense
[35] = source organism: Mammarenavirus lassaense
[36] = source organism: Cryptosporidium parvum Iowa II
[37] = source organism: Yersinia mollaretii ATCC 43969
[38] = source organism: Escherichia coli
[39] = source organism: Orthohantavirus andesense

Sequence: SVYFAAFAF
Kd (HLA-B*46:01 [1]; source organism: Vibrio vulnificus YJ016): ≥ 20 µM
Kd (HLA-A*23:01; [31]): 16 nM
Kd (HLA-A*24:03 [2]; [31]): 66 nM

Sequence: HFFESLYAR
Kd (HLA-A*31:01 [3]): 1.6 nM
Kd (HLA-A*24:03 [4]; source organism: Bacillus anthracis str. A0488): 4130 nM

Sequence: SSLRYGNVL
Kd (HLA-A*26:01; [32]): ≥ 20 µM
Kd (HLA-B*51:01; [32]): ≥ 20 µM
Kd (HLA-A*69:01 [5]; [32]): ≥ 20 µM
Kd (HLA-B*27:03; [32]): ≥ 20 µM
Kd (HLA-A*02:01 [6]; [33]): ≥ 20 µM
Kd (HLA-B*48:01; [33]): ≥ 20 µM
Kd (HLA-A*68:02 [7]): ≥ 20 µM
Kd (HLA-A*01:01; [33]): ≥ 20 µM
Kd (HLA-A*29:02; [33]): ≥ 20 µM
Kd (HLA-B*27:05; [33]): ≥ 20 µM
Kd (HLA-B*46:01 [8]; [33]): ≥ 20 µM
Kd (HLA-A*31:01 [9]; [33]): ≥ 20 µM
Kd (HLA-B*18:01 [10]; [33]): ≥ 20 µM
Kd (HLA-B*39:01 [11]; [33]): 4 µM
Kd (HLA-B*57:01 [12]; [33]): ≥ 20 µM
Kd (HLA-A*03:01 [13]; [33]): ≥ 20 µM
Kd (HLA-A*02:11 [14]): ≥ 20 µM
Kd (HLA-A*02:12 [15]; [34]): ≥ 20 µM
Kd (HLA-B*44:02; [33]): ≥ 20 µM
Kd (HLA-B*15:01 [16]; [33]): ≥ 20 µM
Kd (HLA-A*24:03 [2]; [34]): ≥ 20000 nM

Sequence: KHDEEFCDM
Kd (HLA-B*07:02): ≥ 20 µM
Kd (HLA-A*02:01 [6]; [35]): ≥ 20 µM
Kd (HLA-B*48:01; [35]): ≥ 20 µM
Kd (HLA-B*40:01): ≥ 20 µM
Kd (HLA-A*01:01; [35]): ≥ 20 µM
Kd (HLA-A*29:02; [35]): ≥ 20 µM
Kd (HLA-A*11:01): ≥ 20 µM
Kd (HLA-B*27:05; [35]): ≥ 20 µM
Kd (HLA-B*46:01 [8]; [35]): ≥ 20 µM
Kd (HLA-A*31:01 [9]; [35]): ≥ 20 µM
Kd (HLA-A*69:01 [17]): ≥ 20 µM
Kd (HLA-B*18:01 [10]; [35]): ≥ 20 µM
Kd (HLA-B*39:01 [11]; [35]): ≥ 20 µM
Kd (HLA-B*57:01 [12]; [35]): ≥ 20 µM
Kd (HLA-A*03:01 [13]; [35]): ≥ 20 µM
Kd (HLA-B*44:02; [35]): ≥ 20 µM
Kd (HLA-B*15:01 [16]; [35]): ≥ 20 µM
Kd (HLA-B*58:01): ≥ 20 µM

Sequence: GFKRGIFIF
Kd (HLA-A*23:01; [36]): 2 nM
Kd (HLA-A*24:03 [2]; [36]): ≤ 1 nM

Kd (HLA-A*24:03 [4]; source organism: Escherichia coli 536): 0.3 nM
Sequence: QYTRNSFYI

Sequence: CIIGTVSKF
Kd (HLA-A*23:01; source organism: Amur virus): 97 nM
Kd (HLA-A*24:03 [2]; source organism: Amur virus): 49 nM

Sequence: MMWIPGWFG
Kd (HLA-A*02:01 [18]; [37]): ≥ 20 µM
Kd (HLA-A*68:02 [19]; [37]): ≥ 20 µM
Kd (HLA-A*26:01; [37]): ≥ 20 µM
Kd (HLA-B*46:01 [1]; [37]): ≥ 20 µM
Kd (HLA-B*51:01; [37]): ≥ 20 µM
Kd (HLA-A*02:19 [20]; [37]): ≥ 20 µM
Kd (HLA-B*15:17; [37]): ≥ 20 µM
Kd (HLA-B*18:01 [21]; [37]): ≥ 20 µM
Kd (HLA-B*39:01 [22]; [37]): ≥ 20 µM
Kd (HLA-B*57:01 [23]; [37]): ≥ 20 µM
Kd (HLA-A*03:01 [24]; [37]): ≥ 20 µM
Kd (HLA-A*02:12 [25]; [37]): 185 nM
Kd (HLA-B*27:03; [37]): ≥ 20 µM
Kd (HLA-B*15:01 [26]; [37]): ≥ 20 µM
Kd (HLA-A*24:03 [4]; [37]): ≥ 20000 nM
Kd (HLA-A*02:03 [27]): ≥ 20 µM

Kd (HLA-A*02:01 [18]; [38]): ≥ 20 µM
Kd (HLA-A*68:02 [19]; [38]): ≥ 20 µM
Kd (HLA-A*26:01; [38]): ≥ 20 µM
Kd (HLA-B*46:01 [1]; [38]): ≥ 20 µM
Kd (HLA-B*51:01; [38]): ≥ 20 µM
Kd (HLA-A*02:19 [20]; [38]): ≥ 20 µM
Kd (HLA-B*15:17; [38]): ≥ 20 µM
Kd (HLA-A*69:01 [5]; [38]): ≥ 20 µM
Kd (HLA-B*18:01 [21]; [38]): ≥ 20 µM
Kd (HLA-B*39:01 [22]; [38]): ≥ 20 µM
Kd (HLA-B*57:01 [23]; [38]): ≥ 20 µM
Kd (HLA-A*03:01 [24]; [38]): ≥ 20 µM
Kd (HLA-A*02:11 [28]): 13.6 nM
Kd (HLA-A*02:12 [25]; [38]): ≥ 20000 nM
Kd (HLA-B*27:03; [38]): ≥ 20 µM
Kd (HLA-B*15:01 [26]; [38]): ≥ 20 µM
Sequence: MFWKLPPWL

Sequence: RWASGVSEI
Kd (HLA-A*26:01; [39]): ≥ 20 µM
Kd (HLA-B*46:01 [1]; [39]): ≥ 20 µM
Kd (HLA-B*51:01; [39]): ≥ 20 µM
Kd (HLA-B*18:01 [21]; [39]): ≥ 20 µM
Kd (HLA-B*39:01 [22]; [39]): ≥ 20 µM
Kd (HLA-B*57:01 [23]; [39]): ≥ 20 µM
Kd (HLA-B*27:03; [39]): ≥ 20 µM
Kd (HLA-A*24:03 [4]; [39]): 0.2 nM
Kd (HLA-A*02:19 [29]): ≥ 20 µM
Kd (HLA-A*03:01 [13]; [39]): ≥ 20 µM
Kd (HLA-A*02:12 [15]; [39]): ≥ 20 µM
Kd (HLA-A*02:03 [30]): ≥ 20 µM
